Earlier results as cited in paper PMC7617445.

Target: IL-18 (Homo sapiens) (UniProt Q14116)
Sequence (Q14116 37-193): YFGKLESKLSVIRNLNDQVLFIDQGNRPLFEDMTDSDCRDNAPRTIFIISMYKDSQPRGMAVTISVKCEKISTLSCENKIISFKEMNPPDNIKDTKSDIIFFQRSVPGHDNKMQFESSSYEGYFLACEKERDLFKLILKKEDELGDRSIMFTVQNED

Sequence of IL-18BP (O95998 31-194): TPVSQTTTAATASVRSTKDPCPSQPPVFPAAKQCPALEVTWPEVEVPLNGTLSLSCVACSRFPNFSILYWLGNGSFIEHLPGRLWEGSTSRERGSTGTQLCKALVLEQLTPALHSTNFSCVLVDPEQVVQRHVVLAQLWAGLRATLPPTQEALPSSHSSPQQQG

IL-18BP (from UniProt O95998)
Kd: 0.1 nM
